Experimental data taken from US12077763B2, “RNA-based control of powdery mildew” (Greenlight Biosciences, Inc., priority 2021, dated 2024).

Tested on: E. necator
Test: Leaf disc assay, dry inoculum (settling tower), decrease in disease severity / hyphal growth (Example 2)
Details: decrease in disease severity (hyphal growth) relative to untreated control, value ± SE; for % decrease =/− SE TP2: time point 2; for % decrease =/− SE TP1: time point 1 (untreated control hyphal growth ≥50%)

B1: GS3603 (nucleic acid)
sense: AGUCCAAAAGAGUCCAGGAGUUCGGUAUCGGAUCAUAACACCAAACAUCGUUAUACCAUUGAAGACCAUUUGUUCCGCCAAACAAGUAAAGCUUUUCAUUAUAUGUCACAACUGAGUGAUUUGUUCUAGCUGAUGGUAUUUGUCCUACUGGGGGUCCACCAUCCUCACUAUUUUUAAUGAGAAUUUCCCACCUGUUCGUAGGGACUUGCAAAAGAUUCAAAUCAAAAGCCACAAGGUCAUUCAUAAAAUAACCCUCUACUUGCCCCCCGAAUACGUAGAUUUUAGACCCUAGUAUAUUGA
antisense: UCAAUAUACUAGGGUCUAAAAUCUACGUAUUCGGGGGGCAAGUAGAGGGUUAUUUUAUGAAUGACCUUGUGGCUUUUGAUUUGAAUCUUUUGCAAGUCCCUACGAACAGGUGGGAAAUUCUCAUUAAAAAUAGUGAGGAUGGUGGACCCCCAGUAGGACAAAUACCAUCAGCUAGAACAAAUCACUCAGUUGUGACAUAUAAUGAAAAGCUUUACUUGUUUGGCGGAACAAAUGGUCUUCAAUGGUAUAACGAUGUUUGGUGUUAUGAUCCGAUACCGAACUCCUGGACUCUUUUGGACU
% decrease =/− SE TP2: 7 ± 5%

B2: GS3609 (nucleic acid)
sense: CUGUCAAUAUUACAGCUUGAUAUGAAUCAAACUGGGAGAGAUCAGAAACUAAGCUUGUGGAGCUGUGAAUCUUAACAGGGGUGUAAGCAUUUAGUUCCGAAACUCGUUGAGCUGAGACAAUAUCUCUAGGUUUUCCUAUAUCUUCUGGGUUAAGAAAGAAUUGAGAUGAUAGGUCAGCGAUAGUUGCGGGAGCGGGAUCGUAUAAUGUUAGACUUUUAACUCCAGCCAGAGCUAUAUUCUUAGCUAUUUCGAUACCAAGACCUUUCAAGCCAAUAAUAAGAAUAUUCGAUGCACUCAUUCGUUUCAUAGCCUCGUGUCCAAGAACGUAGAGUUGCCUACUGUAUAAAGAC
antisense: GUCUUUAUACAGUAGGCAACUCUACGUUCUUGGACACGAGGCUAUGAAACGAAUGAGUGCAUCGAAUAUUCUUAUUAUUGGCUUGAAAGGUCUUGGUAUCGAAAUAGCUAAGAAUAUAGCUCUGGCUGGAGUUAAAAGUCUAACAUUAUACGAUCCCGCUCCCGCAACUAUCGCUGACCUAUCAUCUCAAUUCUUUCUUAACCCAGAAGAUAUAGGAAAACCUAGAGAUAUUGUCUCAGCUCAACGAGUUUCGGAACUAAAUGCUUACACCCCUGUUAAGAUUCACAGCUCCACAAGCUUAGUUUCUGAUCUCUCCCAGUUUGAUUCAUAUCAAGCUGUAAUAUUGACAG
% decrease =/− SE TP1: 13 ± 8%
% decrease =/− SE TP2: 9 ± 6%

B3: GS3613 (nucleic acid)
sense: UGUAGCCGCAACAGUUUCAGCUGUCCCAGCUAGUCCUUCUGAUUGAAGUUUAUCAUUAGUAAUCCCUUUAGCGAUGGCGCCAUUAGUACCUUCGGUUGAGUUGCCAACAUUAGAUACUUCGCCAGCACCAUCAGAUACAUGUGUAGUUAAUUCUUCAGAGGUCUUGUCCGGACUAUCUAUUGCGAUCUUUACUGCAAUCUCACGACCUUGAACUUCUUUUCCAUUCAUUUCGGCAACAGCCCUAUUUUGAAGUUCAUUAGAUGCUAAGUUCACAAAGCCAAACCCACGGCCUUUCCGAGGUUCGUUGCGGGCCUGAAGCUUUUUAACCAUGAAUUUUGGAAUAGGACGCA
antisense: UGCGUCCUAUUCCAAAAUUCAUGGUUAAAAAGCUUCAGGCCCGCAACGAACCUCGGAAAGGCCGUGGGUUUGGCUUUGUGAACUUAGCAUCUAAUGAACUUCAAAAUAGGGCUGUUGCCGAAAUGAAUGGAAAAGAAGUUCAAGGUCGUGAGAUUGCAGUAAAGAUCGCAAUAGAUAGUCCGGACAAGACCUCUGAAGAAUUAACUACACAUGUAUCUGAUGGUGCUGGCGAAGUAUCUAAUGUUGGCAACUCAACCGAAGGUACUAAUGGCGCCAUCGCUAAAGGGAUUACUAAUGAUAAACUUCAAUCAGAAGGACUAGCUGGGACAGCUGAAACUGUUGCGGCUACA
% decrease =/− SE TP1: 11 ± 3%

B4: GS3612 (nucleic acid)
sense: AUGAGCUGGUCUUUCAGUGGAAUAUCUGUCAAUAUUACAGCUUGAUAUGAAUCAAACUGGGAGAGAUCAGAAACUAAGCUUGUGGAGCUGUGAAUCUUAACAGGGGUGUAAGCAUUUAGUUCCGAAACUCGUUGAGCUGAGACAAUAUCUCUAGGUUUUCCUAUAUCUUCUGGGUUAAGAAAGAAUUGAGAUGAUAGGUCAGCGAUAGUUGCGGGAGCGGGAUCGUAUAAUGUUAGACUUUUAACUCCAGCCAGAGCUAUAUUCUUAGCUAUUUCGAUACCAAGACCUUUCAAGCCAAUAAUAAGAAUAUUCGAUGCACUCAUUCGUUUCAUAGCCUCGUGUCCAAGAACGUAGAGUUGCCUACUGUAUAAAGACUCAUCGAUAACAUUAUUAUUUUCUU
antisense: AAGAAAAUAAUAAUGUUAUCGAUGAGUCUUUAUACAGUAGGCAACUCUACGUUCUUGGACACGAGGCUAUGAAACGAAUGAGUGCAUCGAAUAUUCUUAUUAUUGGCUUGAAAGGUCUUGGUAUCGAAAUAGCUAAGAAUAUAGCUCUGGCUGGAGUUAAAAGUCUAACAUUAUACGAUCCCGCUCCCGCAACUAUCGCUGACCUAUCAUCUCAAUUCUUUCUUAACCCAGAAGAUAUAGGAAAACCUAGAGAUAUUGUCUCAGCUCAACGAGUUUCGGAACUAAAUGCUUACACCCCUGUUAAGAUUCACAGCUCCACAAGCUUAGUUUCUGAUCUCUCCCAGUUUGAUUCAUAUCAAGCUGUAAUAUUGACAGAUAUUCCACUGAAAGACCAGCUCAU
% decrease =/− SE TP1: 22 ± 6%

B5: GS3610 (nucleic acid)
sense: AUCAAACUGGGAGAGAUCAGAAACUAAGCUUGUGGAGCUGUGAAUCUUAACAGGGGUGUAAGCAUUUAGUUCCGAAACUCGUUGAGCUGAGACAAUAUCUCUAGGUUUUCCUAUAUCUUCUGGGUUAAGAAAGAAUUGAGAUGAUAGGUCAGCGAUAGUUGCGGGAGCGGGAUCGUAUAAUGUUAGACUUUUAACUCCAGCCAGAGCUAUAUUCUUAGCUAUUUCGAUACCAAGACCUUUCAAGCCAAUAAUAAGAAUAUUCGAUGCACUCAUUCGUUUCAUAGCCUCGUGUCCAAGAAC
antisense: GUUCUUGGACACGAGGCUAUGAAACGAAUGAGUGCAUCGAAUAUUCUUAUUAUUGGCUUGAAAGGUCUUGGUAUCGAAAUAGCUAAGAAUAUAGCUCUGGCUGGAGUUAAAAGUCUAACAUUAUACGAUCCCGCUCCCGCAACUAUCGCUGACCUAUCAUCUCAAUUCUUUCUUAACCCAGAAGAUAUAGGAAAACCUAGAGAUAUUGUCUCAGCUCAACGAGUUUCGGAACUAAAUGCUUACACCCCUGUUAAGAUUCACAGCUCCACAAGCUUAGUUUCUGAUCUCUCCCAGUUUGAU
% decrease =/− SE TP1: 10 ± 6%
% decrease =/− SE TP2: 5 ± 6%

B6: GS3606 (nucleic acid)
sense: UAAGGUUGUGUCGGACAACACGAUUCAUACGAGCACUCCCGUCAUCUAAAUCAUCAUCUGCGAGUACAAUUAAAACAGUAUCCUUUCGCUUCUUCCCCUUAACUAGGACAGUAUCUCCACGAAAAAGCUGCAAAGUUUCCAUGGUAUUAUUUGACAGUGCAAUAACAGAGUUAUCAUCGUUGAUGGCAUCUGUUACAAUUAAGGAAUUUGGCUUUUUCUUCUUUUUUAAAAUAGCAGUCGCAGUAGCAUCAAUCGUCUUUUGUUCAGCGCCAGAGGCAUCCUCAAGUUUAACUGUUUUUU
antisense: AAAAAACAGUUAAACUUGAGGAUGCCUCUGGCGCUGAACAAAAGACGAUUGAUGCUACUGCGACUGCUAUUUUAAAAAAGAAGAAAAAGCCAAAUUCCUUAAUUGUAACAGAUGCCAUCAACGAUGAUAACUCUGUUAUUGCACUGUCAAAUAAUACCAUGGAAACUUUGCAGCUUUUUCGUGGAGAUACUGUCCUAGUUAAGGGGAAGAAGCGAAAGGAUACUGUUUUAAUUGUACUCGCAGAUGAUGAUUUAGAUGACGGGAGUGCUCGUAUGAAUCGUGUUGUCCGACACAACCUUA
% decrease =/− SE TP1: 3 ± 6%
% decrease =/− SE TP2: 9 ± 7%
